Consider 1 protein from article doi:10.1101/2020.11.11.377994v1.

Usually Km stands for the concentration of substrate that gives half-maximal velocity. For orientation: kcat means the maximal rate divided by the concentration of active sites.

Substrate in data set [1]: Nc1ncnc2c1ncn2[C@@H]1O[C@H](COP(=O)(O)OP(=O)(O)OP(=O)(O)O)[C@@H](O)[C@H]1O
Kind of data set: purified protein. Particulars: 200 uM dCoA, 10 mM MgCl2, pH 7.4, 37 °C, phosphotransferase.

Substrate in data set [2]: CC(C)(COP(=O)(O)OP(=O)(O)OC[C@H]1O[C@@H](n2cnc3c(N)ncnc32)[C@H](O)[C@@H]1O)[C@@H](O)C(=O)NCCC(=O)NCCS
Kind of data set: purified protein. The following applies: 200 uM ATP, 10 mM MgCl2, pH 7.4, 37 °C.

B1: DPCK (DPCK-WT), putative dephospho-CoA kinase (Aquifex aeolicus VF5) (protein)
chain: MKRIGLTGNIGCGKSTVAQMFRELGAYVLDADKLIHSFYRKGHPVYEEVVKTFGKGILDEEGNIDRKKLADIVFKDEEKLRKLEEITHRALYKEIEKITKNLSEDTLFILEASLLVEKGTYKNYDKLIVVYAPYEVCKERAIKRGMSEEDFERRWKKQMPIEEKVKYADYVIDNSGSIEETYKQVKKVYEELTRDP
Take B1: in data set [1], the Michaelis-Menten constant (Km) amounted to 12.7 ± 0.3 µM and the kcat came out at 0.73 ± 0.025 s⁻¹. Further, in data set [2], the Km was 24.3 ± 1.7 µM and the turnover number (kcat) amounted to 0.817 ± 0.0867 s⁻¹.
